Patent US5932432

How the values were obtained:
[1] = molecular target: yeast RAS1 protein with the carboxy-terminal sequence CAIM (yeast) (UniProt P01119)
[2] = molecular target: yeast RAS1 protein with the carboxy-terminal sequence CAIL (yeast) (UniProt P01119)

- lowest protein concentration detected by radiolabeling protein blots with [3H]FPP (in vitro farnesylation, fluorography) [1]: 0.12 mmol m^-2
- lowest protein concentration detected by radiolabeling protein blots with [3H]FPP (in vitro farnesylation, fluorography) [2]: < 12
Substance: farnesyl:protein transferase (FTase) present in a tobacco protein extract (enzyme)
